Values joined by “and” are separate entries in the source; they are usually repeats but may differ in a detail not shown here. Equal values may be shown once. Read-outs that look alike come from different tables or passages of the source.
What was measured:
[1] = target: bovine thyroglobulin (bovine) (UniProt P01267); experiment: SEC + native MS
[2] = target: bovine thyroglobulin (bovine) (UniProt P01267); experiment: SEC + native MS; remark: listed apart in the source
[3] = target: HBV truncated core protein CP149 dimer (hepatitis B virus); experiment: SEC + native MS
[4] = target: HBV truncated core protein CP149 dimer (hepatitis B virus); experiment: SEC-MALS; SEC-UV-MALS-RI; 7.8 x 300 mm 1000 Å 3 μm column; 20 mM phosphate, 276 mM NaCl, 5.4 mM KCl, pH 7.4 (2x dPBS); flow rates 0.29 and 1.15 mL/min; 20 μL of 2 mg/mL Qβ, 14.4 μL of 0.67 mg/mL HBV VLPs with residual CP149 dimer; dn/dc 0.185 mL/mg
[5] = target: bacteriophage Qβ virus-like particles (bacteriophage Qβ); experiment: as above

**Q.** What does the source list for bovine thyroglobulin, P01267 20-2769?
**A.** stoichiometry N [1]: 2; stoichiometry N [2]: 4 and 3

**Q.** For “HBV truncated core protein CP149 dimer (domain or fragment)”, which stoichiometry N [3] is on record?
**A.** The stoichiometry N was 120 CP dimers and 90 CP dimers.

**Q.** What about the stoichiometry N [4] of the same substance?
**A.** Its stoichiometry N is 120 CP dimers and 90 CP dimers.

**Q.** How did the stoichiometry N (x the molar mass of peak 3) [5] turn out when “bacteriophage Qβ virus-like particles (complex)” was run?
**A.** Its stoichiometry N (x the molar mass of peak 3) is 4 and 2.

Source: publication PMC11822739
